Experimental data from patent publication US20080124320A1, “Use of HMGB fragments as anti-inflammatory agents” (priority 2002, published 2008).

What was measured:
[1] = molecular target: RAGE on murine macrophage-like RAW 264.7 cells (mouse (murine RAW 264.7 cells)) (UniProt Q62151); assay: cell-based or functional assay
[2] = molecular target: Recombinant full length human HMGB1 (wild type HMGB1) (human); assay: cell-based or functional assay
RAW 264.7 cells [3] = assay: TNF release from RAW 264.7 cells, L929 cytotoxicity bioassay; assay type: cell-based, murine
Procedure: (§1) Murine macrophage-like RAW 264.7 cells (American Type Culture Collection, Rockville, Md.) were cultured in RPMI 1640 medium (Life Technologies, Grand Island N.Y.) supplemented with 10% fetal bovine serum (Gemini, Catabasas, Calif.), penicillin and streptomycin (Life Technologies) and were used at 90% confluence in serum-free Opti-MEM I medium (Life Technologies, Grand Island, N.Y.). […] Polymyxin B was not used in experiments of synthetic peptide studies.
TNF release was measured by a standard murine fibroblast L929 (ATCC, American Type Culture Collection, Rockville, Md.) cytotoxicity bioassay (Bianchi et al., Journal of Experimental Medicine 183:927-936, 1996) with the minimum detectable concentration of 30 pg/ml. […]
The effect of the mutants on TNF release from Murine macrophage-like RAW 264.7 cells (ATCC) was carried out as follows. […] Conditioned supernatants (containing TNF which had been released from the cells) were collected and TNF released from the cells was measured by a standard murine fibroblast L929 (ATCC) cytotoxicity bioassay (Bianchi et al., supra) with the minimum detectable concentration of 30 pg/ml. […]
To further examine the effect of HMGB1 B box on cytokine production, varying amounts of HMGB1 B box were evaluated for the effects on TNF, IL-1, and IL-6 production in murine macrophage-like RAW 264.7 cells. […]

C3H/HeJ mice = assay: Lethality and histology in C3H/HeJ mice; assay type: in vivo, mouse; details: 8 hours after administration
RAW 264.7 cells [4] = assay: IL-6 release from RAW 264.7 cells, ELISA; assay type: cell-based, murine; details: B box 0-10 μg/ml, 8 hours (FIG. 2C)
Procedure: as §1
To further examine the effect of HMGB1 B box on cytokine production, varying amounts of HMGB1 B box were evaluated for the effects on TNF, IL-1, and IL-6 production in murine macrophage-like RAW 264.7 cells. Conditioned media were harvested and measured for TNF, IL-1β and IL-6 levels. TNF levels were measured as described herein, and IL-1β and IL-6 levels were measured using the mouse IL-1β and IL-6 enzyme-linked immunosorbent assay (ELISA) kits (R&D System Inc., Minneapolis, Minn.) and N>5 for all experiments.

[5] = test system: Balb/c mice subjected to CLP; assay: Cecal ligation and puncture (CLP) sepsis, survival of Balb/c mice; assay type: in vivo, mouse; details: i.p. twice daily for 3 days beginning 24 hours after CLP
Procedure: Cecal ligation and puncture (CLP) was performed as described previously (Fink and Heard, J. Surg. Res. 49:186-196, 1990; Wichmann et al., Crit. Care Med. 26:2078-2086, 1998; and Remick et al., Shock 4:89-95, 1995). Briefly, Balb/c mice were anesthetized with 75 mg/kg ketamine (Fort Dodge, Fort Dodge, Iowa) and 20 mg/kg of xylazine (Bohringer Ingelheim, St. Joseph, Mo.) intramuscularly. A midline incision was performed, and the cecum was isolated. A 6-0 prolene suture ligature was placed at a level 5.0 mm from the cecal tip away from the ileocecal valve.
The ligated cecal stump was then punctured once with a 22-gauge needle, without direct extrusion of stool. The cecum was then placed back into its normal intra-abdominal position. […] Mortality was recorded for up to 1 week after the procedure; survivors were followed for 2 weeks to ensure no late mortalities had occurred.
To determine whether the HMGB1 A box can inhibit the lethality of HMGB1 during sepsis, mice were subjected to cecal perforation and treated by administration of A box beginning 24 hours after the onset of sepsis. […] Survival was monitored twice daily for up to 2 weeks to ensure no late death occurred. […]
Passive immunization of critically ill septic mice with anti-HMGB1 antibodies was also assessed. […] Survival was monitored for 2 weeks. […]

[6] = test system: NF-κB-dependent ELAM promoter; assay: NF-κB dependent ELAM promoter luciferase reporter in RAW 264.7 macrophages; assay type: cell-based, murine; details: HMGB1 100 ng/ml or B box 10 μg/ml, 5 hours; decreased with MyD 88 dominant negative (FIG. 11B)
Procedure: To examine the effects of HMGB1 or HMGB1 B box on the NF KB dependent ELAM promoter, the following experiment was carried out. RAW 264.7 macrophages were transiently co transfected with an expression plasmid encoding a murine MyD 88 dominant negative (DN) mutant (corresponding to amino acids 146 296), or empty vector, plus a luciferase reporter plasmid under the control of the NF κB dependent ELAM promoter, as described by Means et al. (J. Immunol. 166:4074 4082, 2001). A portion of the cells were then stimulated with full length HMGB1 (100 ng/ml), or purified HMGB1 B box (10 μg/ml), for 5 hours. Cells were then harvested and luciferase activity was measured, using standard methods. All transfections were performed in triplicate, repeated at least three times, and a single representative experiment is shown in FIG. 11B.

Chain of RAGE on murine macrophage-like RAW 264.7 cells (mouse (murine RAW 264.7 cells)) (Q62151 23-402): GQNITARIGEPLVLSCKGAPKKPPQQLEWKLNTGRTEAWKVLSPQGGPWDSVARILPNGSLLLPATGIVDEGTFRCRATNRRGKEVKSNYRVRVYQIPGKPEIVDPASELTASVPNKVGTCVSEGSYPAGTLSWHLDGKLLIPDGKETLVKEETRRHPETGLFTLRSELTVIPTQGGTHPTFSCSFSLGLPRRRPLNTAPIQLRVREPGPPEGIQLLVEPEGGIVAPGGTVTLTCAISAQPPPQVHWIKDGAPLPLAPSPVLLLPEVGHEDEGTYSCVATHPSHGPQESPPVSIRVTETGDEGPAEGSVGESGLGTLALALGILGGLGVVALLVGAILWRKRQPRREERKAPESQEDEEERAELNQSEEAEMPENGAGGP

**Q.** “Recombinant full length human HMGB1 (wild type HMGB1) (from UniProt A9RA84 1-215) (ligand)” was tested. Which decrease of HMG-1 signaling (TNF release from RAW 264.7 cells) by anti-RAGE antibody [1] did it give?
**A.** 40%

**Q.** How did the inhibition of HMGB1 induced TNF release from RAW 264.7 cells (L929 cytotoxicity assay) [2] turn out when “HMGB1 A box protein (Amino terminus + A box mutant of human HMGB1) (from UniProt A9RA84 1-85)” was run?
**A.** 7.5 µg/mL

**Q.** With “fkdpnapkrlpsafflfcse (FKDPNAPKRLPSAFFLFCSE; listed as Homo sapiens) [1-20]” as the molecule, how does the “TNF release by synthetic B box peptide fragments” value (RAW 264.7 cells [3]; synthetic peptide 10 μg/ml, 10 hours, no polymyxin B (FIG. 3), listed as 1-20-mer) read?
**A.** less potent than either the full length synthetic B box (1-74-mer), or full length HMGB1

B1: B box: Recombinant human HMGB1 B box mutant polypeptide, SEQ ID NO:20, expressed with a GST gene fusion system in E. coli (protein, listed as Homo sapiens)
chain: FKDPNAPKRLPSAFFLFCSEYRPKIKGEHPGLSIGDVAKKLGEMWNNTAADDKQPYEKKAAKLKEKYEKDIAAY
modifications: GST fusion
**Q.** How did the histology of heart (C3H/HeJ mice) turn out when B1 was run?
**A.** evidence of ischemia with loss of cross striation associated with amorphous pink cytoplasm in myocardial fibers

**Q.** And the histology of liver (C3H/HeJ mice)?
**A.** mild acute inflammatory responses, with some hepatocyte dropout and apoptosis, and occasional polymorphonuclear leukocytes

**Q.** And the “IL-6 release, dose response” value (RAW 264.7 cells [4])?
**A.** increased with increased amounts of B box

**Q.** And the “TNF protein expression over time versus medium only” value (RAW 264.7 cells [3]; 10 μg/ml, 0-48 hours (FIGS. 2E, 2F))?
**A.** stimulated TNF protein expression

B2: A box: Recombinant human HMGB1 amino terminus + A box mutant, SEQ ID NO:21 (A box SEQ ID NO:22), GST fusion system (protein, listed as Homo sapiens)
chain: MGKGDPKKPTGKMSSYAFFVQTCREEHKKKHPDASVNFSEFSKKCSERWKTMSAKEKGKFEDMAKADKARYEREMKTYIPPKGET
modifications: GST fusion
**Q.** B2 was tested. Which “clinical condition of animals” value ([5]; 60 μg/mouse) did it give?
**A.** most died

**Q.** And the “clinical condition of animals” value ([5]; 600 μg/mouse)?
**A.** significantly more alert, active, and to resume feeding behavior

B3: HMGB1: Recombinant full length human HMGB1, SEQ ID NO:18; recombinant rat HMGB1 used in some experiments (protein, listed as Homo sapiens)
chain: MGKGDPKKPTGKMSSYAFFVQTCREEHKKKHPDASVNFSEFSKKCSERWKTMSAKEKGKFEDMAKADKARYEREMKTYIPPKGETKKKFKDPNAPKRLPSAFFLFCSEYRPKIKGEHPGLSIGDVAKKLGEMWNNTAADDKQPYEKKAAKLKEKYEKDIAAYRAKGKPDAAKKGVVKAEKSKKKKEEEEDEEDEEDEEEEEDEEDEEDEEEDDDDE
**Q.** B3 was tested. Which “luciferase activity (NF-κB dependent ELAM promoter)” value [6] did it give?
**A.** stimulated luciferase activity
